Source: PMC4740771, “Nucleotide-dependent assembly of the peroxisomal receptor export complex” (Scientific Reports, 2016)
Numbering of substitutions follows the chain as printed.

Columns and labels:
Details in all cases: both partners purified
[1] = target: T1, HisPex1p(E798Q) released from its GST fusion (S. cerevisiae, UniProt P24004 1-1043, E798Q); experiment: SEC; second gel filtration of the purified heterohexameric complexes after incubation at 37 °C
T1 construct: Pex1p of yeast with a Walker B mutation of the D2 domain; also called Pex1WB^E798Q; Pex1pWB; not shown: His6, N-terminal, kept; GST, C-terminal, cleaved
T1 sequence (looked up): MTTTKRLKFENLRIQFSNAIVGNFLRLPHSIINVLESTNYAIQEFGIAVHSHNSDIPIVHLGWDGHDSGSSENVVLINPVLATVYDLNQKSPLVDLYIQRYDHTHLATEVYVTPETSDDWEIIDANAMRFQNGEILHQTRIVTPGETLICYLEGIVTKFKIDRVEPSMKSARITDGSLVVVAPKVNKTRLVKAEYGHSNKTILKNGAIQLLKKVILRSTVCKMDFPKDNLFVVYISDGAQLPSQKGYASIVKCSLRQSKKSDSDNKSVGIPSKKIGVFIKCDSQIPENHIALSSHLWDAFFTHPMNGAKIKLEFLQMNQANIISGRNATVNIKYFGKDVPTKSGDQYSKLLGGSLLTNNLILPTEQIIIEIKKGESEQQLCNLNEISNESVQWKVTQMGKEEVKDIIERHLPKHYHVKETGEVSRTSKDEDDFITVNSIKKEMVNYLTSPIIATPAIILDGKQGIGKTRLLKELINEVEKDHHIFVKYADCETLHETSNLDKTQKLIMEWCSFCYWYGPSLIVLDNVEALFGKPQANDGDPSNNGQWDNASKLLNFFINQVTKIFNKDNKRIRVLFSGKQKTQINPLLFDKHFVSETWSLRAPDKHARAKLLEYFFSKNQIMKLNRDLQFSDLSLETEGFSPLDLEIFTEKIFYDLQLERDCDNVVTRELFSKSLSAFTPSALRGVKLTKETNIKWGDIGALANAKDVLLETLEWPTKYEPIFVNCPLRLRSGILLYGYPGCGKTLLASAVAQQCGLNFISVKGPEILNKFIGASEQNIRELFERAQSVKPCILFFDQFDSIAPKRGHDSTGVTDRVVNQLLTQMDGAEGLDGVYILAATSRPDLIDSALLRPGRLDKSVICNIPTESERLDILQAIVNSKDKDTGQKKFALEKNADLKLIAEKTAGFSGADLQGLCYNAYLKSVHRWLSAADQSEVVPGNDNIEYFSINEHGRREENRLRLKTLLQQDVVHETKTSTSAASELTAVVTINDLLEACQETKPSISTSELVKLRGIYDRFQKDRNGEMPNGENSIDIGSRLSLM

[2] = target: T2, Pex15p(1-315)His (GST removed by thrombin) (S. cerevisiae, UniProt Q08215 1-315); experiment: SEC; Pex1/6p/Pex15p complex isolated on GSH-agarose, released by thrombin (GST left on the column), Superose 6 (small-scale and preparative) in presence of ATP; anti-His immunoblot or Coomassie, signal intensities by ImageJ
T2 construct: Pex15p of S. cerevisiae, cytosolic part, residues 1 to 315; Same construct as m10 after thrombin cleavage; detected by anti-His antibodies; Printed mass 36 kDa; alone it eluted at about 100 kDa; also called Pex15pHis; source: E. coli BL21 (DE3), purified (Glutathione Agarose 4B), released from GSH-agarose by thrombin; not shown: GST, N-terminal, cleaved; His6, C-terminal, kept
T2 sequence (looked up): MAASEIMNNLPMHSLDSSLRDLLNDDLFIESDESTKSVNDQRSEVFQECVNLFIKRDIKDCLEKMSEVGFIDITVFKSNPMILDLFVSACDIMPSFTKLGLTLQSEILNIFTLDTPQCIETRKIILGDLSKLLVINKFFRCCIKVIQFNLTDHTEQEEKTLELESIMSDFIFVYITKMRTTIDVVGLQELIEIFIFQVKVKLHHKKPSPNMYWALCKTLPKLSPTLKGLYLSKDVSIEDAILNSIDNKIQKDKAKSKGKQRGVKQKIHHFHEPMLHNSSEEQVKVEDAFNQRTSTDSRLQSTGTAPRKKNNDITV

[3] = target: T3, HisPex1p released from HisPex1pGST by thrombin (S. cerevisiae, UniProt P24004 1-1043); experiment: as above
T3 construct: Pex1p, type II AAA-ATPase peroxin of yeast; The GST tag held the complex on GSH-agarose during purification and stayed on the column after thrombin cleavage; source: E. coli Tuner (DE3), co-purified with HisPex6p (NiNTA-agarose, GSH-agarose, thrombin release); not shown: His6, N-terminal, kept; GST, C-terminal, cleaved
T3 sequence (looked up): T1 sequence (looked up) with Q798E

B1: HisPex6p (natural protein, S. cerevisiae, UniProt P33760 1-1030, looked up)
chain: MKASLTFSLSGIYAPCSISRDIYLEYGDKKAECLYGTIRLPQYGPGCTPGKIVHCVLDDSLPFCSIVVPSKLFGFMPTQPTMDFCYFEPILDNVVPVLDSVTFLINEQLYSKLMDLPQEMQQIQFLHYKYNINSMETVVHSRDILTSGLCQILNCSPFPQGLVDFTETQLILVNDTEQKLSALKYANEDEEYALPKIGTNSALSIDLESLPCTISRDLLRPAPHINDDNSIYAFTDAETLLRLDVTSGSFITVSNMGCVRLVKLFVLLLPNGFKKRTIYAPPKIIASFPDCSVVTISKSNIGHTDIPIANQVFISRVGGWLQSQKCFQNIILTTLKKFFSESKRILCQNDLIPIAFDSSMADLNIAEENDESDDEDELGQYYKNDSLVWFFVTSAELDCFSKDNSHFIIDPNRTKLITTNITNRRPLPLSRSNLQRYYGFAETFYYDLHIFPYVRQLVNILETSFNCSQRGITLNASVLLHSTTNNVGKATMVRFASKYLGIHLLEIDCLSLTSNSRQLDSTSKIIGYIRAKCENVLPYASPAVIFLAHLDSILLDVNANQDPEAIKLQKSINFEMSKLLDDFTFKFPGTTFVGSVNNIDNVPSSFRSHMRFEILVPVPSEAQRLRIFQWYLSSHELNRDVQQKVPVSYMDNISFSSLSSYSAGLTPLDIKSIVETARMTATARFYQESKKCGWLPQSILITQEDLSKATSKARNEFSVSIGAPQIPNVTWDDIGGIDFVKGEILDTIDMPLKHPELFTSGMKKRSGILFYGPPGTGKTLMAKAIATNFSLNFFSVKGPELLNMYIGESEANVRRVFQKAREAKPCVIFFDEIDSVAPKRGNQGDSGGVMDRIVSQLLAELDGMSTDADGVFVIGATNRPDLLDEALLRPGRFDKLLYLGIPDTDTKQLNILEALTRKFVLDNDVKLIELAKLCPFNYTGADFYALCSDAMLNAMSRIARMVEKKVSQHNELTGENISTRRWFDKIATKEDTKVVVKMEDFLKAQEQLTPSVSRAELNHYEAVRANFEGA
notes: Pex6p, type II AAA-ATPase peroxin of yeast; also called single Pex6p; isolated Pex6p; source: E. coli Tuner (DE3), purified (NiNTA-agarose; with HisPex1pGST also GSH-agarose and size exclusion); not shown: His6, N-terminal, kept
[1]
  binding result: binds
[2]
  stoichiometry N: 1 Pex15p per Pex6p
[3]
  stoichiometry N: 0.9 Pex6p per Pex1p
